One molecule from PMC5941314 (2018) can be followed below.

Broadly, the Kd is the equilibrium constant for the complex coming apart.

Common to all, as to experiment: ITC 25 C, TWO LABS merged (one a row), salt differs
One assay deals with UBE2L3 (Homo sapiens (Human), UniProt P68036).
The target of the next assay is T1, UBE2N (Homo sapiens (Human), UniProt P61088).
T1 chain: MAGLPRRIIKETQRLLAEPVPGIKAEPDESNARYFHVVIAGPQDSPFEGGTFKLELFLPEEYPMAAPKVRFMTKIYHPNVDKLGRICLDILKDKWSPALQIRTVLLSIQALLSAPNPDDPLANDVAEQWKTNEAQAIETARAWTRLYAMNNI

The next assay has as its target UBE2D2 (Homo sapiens (Human), UniProt P62837).

UBE2L3, sequence (P68036 whole entry): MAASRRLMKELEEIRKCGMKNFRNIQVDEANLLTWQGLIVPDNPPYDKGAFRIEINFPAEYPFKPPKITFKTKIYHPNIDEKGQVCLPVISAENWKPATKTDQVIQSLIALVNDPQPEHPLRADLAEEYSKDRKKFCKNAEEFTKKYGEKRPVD
UBE2D2, sequence (P62837 whole entry, looked up): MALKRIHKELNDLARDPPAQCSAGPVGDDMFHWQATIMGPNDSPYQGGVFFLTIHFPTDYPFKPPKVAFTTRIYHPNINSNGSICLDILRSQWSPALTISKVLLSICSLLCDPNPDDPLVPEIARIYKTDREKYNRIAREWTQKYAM

B1: Arkadia (protein)
chain: KQDGEEGTEEDTEEKCTICLSILEEGEDVRRLPCMHLFHQVCVDQWLITNKKCPICRVDIEAQLPSES
Take B1: the Kd with UBE2L3 is 27.3 µM; in the assay with UBE2N it was 264 µM; with UBE2D2 it was 32 µM.
